B1: antigen-binding unit ABU-190 (antibody, V domains shown)
VH: EVQLVESGGGLIQPGGSLRLSCAASGITVSSNYMSWVRQAPGKGLEWVSVIYSGGSTDYADSVKGRFTISRDKSKNTLYLQMNSLRAEDTAVYYCARDLGEAGGMDVWGQGTTVTVSS
VL: AIQLTQSPSSLSASVGDRVTITCRASQGISSYLAWYQQKPGKAPKLLIYAASTLQSGVPSRFSGSGSGTDFTLTISSLQPEDFATYYCQQLNSYPPAFGGGTKVEIK
B2: antigen-binding unit ABU-174 (antibody, V domains shown)
VH: QVQLQQWGAGLLKPSETLSLTCAVYGGSFSDYYWNWIRRPPGKGLEWIGEITHSGSTNYNPSLKSRVTISVDTSKNQFSLKLSSVTAADTAVYYCARGQGYGRVLLWFGEWGQGTLVTVSS
VL: EIVLTQSPATLSLSPGERATLSCRASQSVSTYLAWYQQKPGQAPRLLIYDASNRATGIPARFSGSGSGTDFTLTISSLEPEDFAVYYCQQRSNWITFGQGTRLEIK

Molecular target: S protein (Spike) of the novel coronavirus SARS-CoV-2 (SARS-CoV-2, UniProt P0DTC2 14-1273)
Assay: cell-based or functional assay

Binder | IC50, PRNT with SARS-CoV-2 euvirus on Vero E6 cells | IC50, neutralization of SARS-CoV-2 pseudovirus (Huh-7 cells, luciferase)
B1 | 0.8 µg/mL | 0.039 µg/mL
B2 | 0.5 µg/mL | 0.026 µg/mL

— patent publication US20230174628A1 (PEKING UNIVERSITY, published 2023)
